# From patent publication US20230039694A1, “H[…] REDUCTASE AND USES THEREOF” (Southwest University, priority 2019, published 2023)
# B1: HAR: Hyoscyamine aldehyde reductase from Atropa belladonna, amino acid sequence SEQ ID NO. 4, encoded by SEQ ID NO. 3 (protein, listed as Atropa belladonna)
# chain: MDSSGVLSPFTFSRRATGEEDVRLKVLYCGICHSDLGCIKNEWGWCSYPLVPGHEIVGIATEVGSKVTKFKVGDRVGVGCMVGSCGTCQNCTQNQESYCPEVIMTCASAYPDGTPTYGGFSNQMVANEKFVIRIPNSLPLDAAAPLLCAGSTVYSAMKFYGLCSQGLHLGVVGLGGLGHVAVKFAKAFGMKVTVISTSLGKKEEAINQLGADSFLINTDTEQMQGAMEVMDGIIDTVSALHPIEPLLGLLKSHQGKLIIVGLPNKQPELPVFSLINGRKMIGGSAVGGVKETQEMIDFAAEHNITADIEIVPMDYVNTAMERLEKGDVKFRFVIDVENTLVAAQT
# Key:
# [1] = Verification on enzyme activity of HAR: hyoscyamine aldehyde reduction reaction, product identified by high-resolution mass spectrometry; type: biochemical, Atropa belladonna; conditions: phosphate buffer pH 6.4, 0.2 mM NADPH-4Na, 1 mM hyoscyamine aldehyde, 30 μg HAR protein, 1 h at 37.5° C.
# Protocol: The constructed pET28a-HAR plasmid was converted to a prokaryotic expression stain BL21, and a positive clone was screened with PCR to obtain prokaryotic expression engineering bacteria BL21-pET28a-HAR. 100 μL of BL21-pET28a-HAR bacterial liquid was inoculated to a 30 mL of LB liquid medium containing 100 mg/L kanamycin for overnight culture at 37° C. and 200 rpm. Then, a product was respectively inoculated to 400 mL of LB liquid medium according to a ratio of 1 to 50 for activated culture at 37° C. and 200 rpm, and when OD600 was about 0.6, IPTG was added until a final concentration reached 1 mM. Culture was continued for 6 h at 37° C. and 200 rpm. The harvested bacterial liquid was subjected to centrifugation at 8000 rpm, and a supernatant was removed. Then precipitate bacteria were resuspended with a phosphate buffer, subjected to ultrasonication and then purified with a Ni-NTA filler from GE Company to obtain an HAR protein.
# A hyoscyamine aldehyde reduction reaction system catalyzed by the HAR was as follows: a phosphate buffer (pH 6.4), 0.2 mM NADPH-4Na, 1 mM hyoscyamine aldehyde and 30 μg of HAR protein were incubated for 1 h at 37.5° C., and a reaction product was identified using a high-resolution mass spectrometer. […]
# [2] = tested on: Atropa belladonna hairy roots; assay: Content of hyoscyamine in transgenic Atropa belladonna hairy roots with HAR over-expression (HPLC); type: cell-based
# From the text: In order to study the effect of an HAR gene on tropane alkaloids in Atropa belladonna, a pericycle-specific high-expression vector PMT promoter::HAR was constructed, and an original plasmid was pBI121. Firstly, a 35S promoter on the original plasmid pBI121 was substituted with an AbPMT promoter by using digestion sites HindIII and Xba I; and the AbPMT promoter was subjected to PCR amplification with Atropa belladonna cDNA as a template and sequences as shown in SEQ ID NO. 7 and SEQ ID NO. 8 as primers. Then a GUS gene on the original plasmid was substituted with the HAR gene by using digestion sites BamHI and SacI; and the HAR gene was subjected to PCR amplification with Atropa belladonna cDNA as a template and sequences as shown in SEQ ID NO. 9 and SEQ ID NO. 10 as primers to obtain an HAR plant over-expression vector PMT promoter:: HAR. The primer sequences used were as follows: […]
# The hairy roots were harvested after being subjected to shaking culture for 30 d in an MS liquid medium, and a material was freeze-dried to a constant weight in a freeze dryer. […] The alkaloids were dissolved with 1 mL of liquid chromatography grade methanol; the solution was filtered with a filter membrane of 0.22 μm; the content of the alkaloids was determined with HPLC; and a result was an average of three repeated experiments, where an error bar indicated a standard deviation. […]
molecule,measurement,setting,value
B1,product of the hyoscyamine aldehyde reduction reaction catalyzed by the HAR,[1],a product of the hyoscyamine aldehyde reduction reaction catalyzed by the HAR was hyoscyamine
same,content of hyoscyamine relative to non-transgenic Atropa belladonna hairy roots,"[2]; AbHAR over-expression hairy roots versus non-transgenic hairy roots, same period",1.83-2.58 times
same,average content of hyoscyamine in hairy roots,"[2]; AbHAR over-expression hairy roots, 30 d shaking culture in MS liquid medium, ordinary hairy roots 2.32 mg/g DW",4.24-5.98 mg/g DW
